Measurements reported in the supplement of paper PMC7877785.
± gives the uncertainty stated by the source.

Experiment: self-splicing fitness, log relative to wild type (ln ratio); higher = more splicing; Tetrahymena group I intron in knt gene, E. coli kanamycin selection, DiMSum; sequences stand for … in CUCUCU…GGAGGGAAAAGUUAUCAGGCAUGCACCUGGUAGCUAGUCUUUAAACCAAUAGAUUGCAUCGGUUUAAAAGGCAAGACCGUCAAAUUGCGGGAAAGGGGUCAACAGCCGUUCAGUACCAAGUCUCAGGGGAAACUUUGAGAUGGCCUUGCAAAGGGUAUGGUAAUAAGCUGACGGACAUGGUCCUAACCACGCAGCCAAGUCCUAAGUCAACAGAUCUUCUGUUGAUAUGGAUGCAGUUCACAGACUAAAUGUCGGUCGGGGAAGAUGUAUUCUUCUCAUAAGAUAUAGUCGGACCUCUCCUUAAUGGGAGCUAGCGGAUGAAGUGAUGCAACACUGGAGCCGCUGGGAACUAAUUUGUAUGCGAAAGUAUAUUGAUUAGUUUUGGAGUACUCGUGGUCG
How it was run: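 Library with all eight P1ex-region intron nucleotides randomised, intron inside the knt kanamycin-resistance gene on pET-22b(+), in E. coli BL21(DE3). Cells grew overnight at 37°C or 30°C on LB agar with or without 25 μg/mL kanamycin (plus 100 μg/mL carbenicillin, 50 μM IPTG, 0.2% rhamnose), in six replicate transformations. Pooled colonies were amplicon-sequenced on Illumina HiSeq 2500. DiMSum fitness is the error-weighted combination of wild-type-normalised replicate fold changes, kanamycin versus none.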

## GCAGAGCAAUAUUACGUGUG
30 °C
  self-splicing fitness (ln): -2.07 ± 0.22
37 °C
  self-splicing fitness (ln): -2.63 ± 0.25

## UUGCAGCAAUAUUACGAAGC
30 °C
  self-splicing fitness (ln): -2.28 ± 0.3
37 °C
  self-splicing fitness (ln): -0.93 ± 0.36

## CUAAAGCAAUAUUACGUGCG
30 °C
  self-splicing fitness (ln): -0.674 ± 0.093
37 °C
  self-splicing fitness (ln): 0.0651 ± 0.12

## UGCCAGCAAUAUUACGUCUC
30 °C
  self-splicing fitness (ln): -4.62 ± 0.29
37 °C
  self-splicing fitness (ln): -2.11 ± 0.25

## GAUGAGCAAUAUUACGCACG
30 °C
  self-splicing fitness (ln): -3.63 ± 0.32
37 °C
  self-splicing fitness (ln): -2.25 ± 0.3

## AUUCAGCAAUAUUACGUAGC
30 °C
  self-splicing fitness (ln): -3.44 ± 0.26
37 °C
  self-splicing fitness (ln): -1.43 ± 0.19

## GUAGAGCAAUAUUACGCGUC
30 °C
  self-splicing fitness (ln): -0.836 ± 0.18
37 °C
  self-splicing fitness (ln): -0.0736 ± 0.22

## GGAGAGCAAUAUUACGACUG
37 °C
  self-splicing fitness (ln): -1.15 ± 0.27

## ACCGAGCAAUAUUACGUGAU
30 °C
  self-splicing fitness (ln): -3.36 ± 0.13
37 °C
  self-splicing fitness (ln): -2.06 ± 0.12

## GCCUAGCAAUAUUACGGAAG
30 °C
  self-splicing fitness (ln): -2.96 ± 0.17
37 °C
  self-splicing fitness (ln): -1.44 ± 0.17

## AGAAAGCAAUAUUACGCGAC
30 °C
  self-splicing fitness (ln): -2.25 ± 0.15
37 °C
  self-splicing fitness (ln): -1.65 ± 0.18

## CCUCAGCAAUAUUACGCCCU
30 °C
  self-splicing fitness (ln): -2.29 ± 0.24
37 °C
  self-splicing fitness (ln): -2.73 ± 0.48

## GCGUAGCAAUAUUACGUGUC
30 °C
  self-splicing fitness (ln): -3.83 ± 0.27
37 °C
  self-splicing fitness (ln): -2.06 ± 0.14

## AUAUAGCAAUAUUACGACUA
30 °C
  self-splicing fitness (ln): -0.8 ± 0.3
37 °C
  self-splicing fitness (ln): -0.351 ± 0.29

## UUUAAGCAAUAUUACGCAGG
30 °C
  self-splicing fitness (ln): -0.857 ± 0.14
37 °C
  self-splicing fitness (ln): -0.494 ± 0.2

## ACGUAGCAAUAUUACGAUUA
30 °C
  self-splicing fitness (ln): -0.625 ± 0.12
37 °C
  self-splicing fitness (ln): -0.514 ± 0.11

## CUCUAGCAAUAUUACGUGCA
30 °C
  self-splicing fitness (ln): -2.34 ± 0.43

## UUGCAGCAAUAUUACGAGUG
30 °C
  self-splicing fitness (ln): -1.61 ± 0.1
37 °C
  self-splicing fitness (ln): -1.46 ± 0.13

## UUAUAGCAAUAUUACGGUCG
30 °C
  self-splicing fitness (ln): -0.705 ± 0.11
37 °C
  self-splicing fitness (ln): 0.176 ± 0.15

## CAGAAGCAAUAUUACGUUUA
30 °C
  self-splicing fitness (ln): -3.13 ± 0.18
37 °C
  self-splicing fitness (ln): -1.95 ± 0.12

## GGCCAGCAAUAUUACGGAGA
30 °C
  self-splicing fitness (ln): -0.788 ± 0.095
37 °C
  self-splicing fitness (ln): -0.565 ± 0.086

## ACCAAGCAAUAUUACGUCAA
30 °C
  self-splicing fitness (ln): -3.35 ± 0.17
37 °C
  self-splicing fitness (ln): -3 ± 0.16

## AUCAAGCAAUAUUACGAGAC
30 °C
  self-splicing fitness (ln): -3.01 ± 0.3
37 °C
  self-splicing fitness (ln): -1.87 ± 0.19

## UCAUAGCAAUAUUACGACAC
37 °C
  self-splicing fitness (ln): -2.64 ± 0.29

## GCAUAGCAAUAUUACGGGAU
30 °C
  self-splicing fitness (ln): -1.41 ± 0.085
37 °C
  self-splicing fitness (ln): -0.646 ± 0.11

## UUAAAGCAAUAUUACGGUAA
30 °C
  self-splicing fitness (ln): -0.33 ± 0.076
37 °C
  self-splicing fitness (ln): 0.503 ± 0.1

## GAUAAGCAAUAUUACGCGCA
30 °C
  self-splicing fitness (ln): -0.808 ± 0.085
37 °C
  self-splicing fitness (ln): 0.383 ± 0.13

## UAGGAGCAAUAUUACGCGAG
30 °C
  self-splicing fitness (ln): -2.32 ± 0.16
37 °C
  self-splicing fitness (ln): -0.56 ± 0.13

## ACCGAGCAAUAUUACGAACA
30 °C
  self-splicing fitness (ln): -3.15 ± 0.47
37 °C
  self-splicing fitness (ln): -1.43 ± 0.17

## CAAGAGCAAUAUUACGUAGA
30 °C
  self-splicing fitness (ln): -3.55 ± 0.17
37 °C
  self-splicing fitness (ln): -2.76 ± 0.24

## CACGAGCAAUAUUACGAUUA
30 °C
  self-splicing fitness (ln): -3.34 ± 0.31
37 °C
  self-splicing fitness (ln): -2.12 ± 0.25

## GCAGAGCAAUAUUACGGCAU
30 °C
  self-splicing fitness (ln): -3.03 ± 0.17
37 °C
  self-splicing fitness (ln): -0.473 ± 0.11

## UAUCAGCAAUAUUACGUGAG
30 °C
  self-splicing fitness (ln): 0.239 ± 0.054
37 °C
  self-splicing fitness (ln): 0.101 ± 0.084

## AGAUAGCAAUAUUACGACCA
30 °C
  self-splicing fitness (ln): -0.39 ± 0.16
37 °C
  self-splicing fitness (ln): 1.11 ± 0.2

## GGCAAGCAAUAUUACGGAGC
30 °C
  self-splicing fitness (ln): -1.36 ± 0.2
37 °C
  self-splicing fitness (ln): 0.0393 ± 0.25

## CCGGAGCAAUAUUACGACAU
30 °C
  self-splicing fitness (ln): -3.816 ± 0.032
37 °C
  self-splicing fitness (ln): -3.02 ± 0.045

## UGCAAGCAAUAUUACGGACA
30 °C
  self-splicing fitness (ln): -0.633 ± 0.12
37 °C
  self-splicing fitness (ln): -0.0695 ± 0.16

## GACCAGCAAUAUUACGCGAG
30 °C
  self-splicing fitness (ln): -1.37 ± 0.16
37 °C
  self-splicing fitness (ln): -0.897 ± 0.13

## CCACAGCAAUAUUACGUUGG
30 °C
  self-splicing fitness (ln): -3.83 ± 0.11
37 °C
  self-splicing fitness (ln): -2.51 ± 0.13

## GCCGAGCAAUAUUACGGCCU
30 °C
  self-splicing fitness (ln): -2.54 ± 0.42
37 °C
  self-splicing fitness (ln): -1.56 ± 0.35

## UUUUAGCAAUAUUACGACUC
30 °C
  self-splicing fitness (ln): -2.56 ± 0.46

## GCCAAGCAAUAUUACGGCAU
30 °C
  self-splicing fitness (ln): -3.55 ± 0.21
37 °C
  self-splicing fitness (ln): -2.55 ± 0.19

## CGAUAGCAAUAUUACGUUAG
30 °C
  self-splicing fitness (ln): -0.734 ± 0.084
37 °C
  self-splicing fitness (ln): -0.52 ± 0.093

## AGUUAGCAAUAUUACGUACC
30 °C
  self-splicing fitness (ln): -0.585 ± 0.24
37 °C
  self-splicing fitness (ln): -0.376 ± 0.28

## CAUAAGCAAUAUUACGUAUA
30 °C
  self-splicing fitness (ln): -3.21 ± 0.12
37 °C
  self-splicing fitness (ln): -2.32 ± 0.13

## GGGUAGCAAUAUUACGGCGC
30 °C
  self-splicing fitness (ln): -0.217 ± 0.12
37 °C
  self-splicing fitness (ln): -1.14 ± 0.12

## GCCGAGCAAUAUUACGUAAC
30 °C
  self-splicing fitness (ln): -2.89 ± 0.19
37 °C
  self-splicing fitness (ln): -0.977 ± 0.2

## CUGGAGCAAUAUUACGCAGC
30 °C
  self-splicing fitness (ln): -3.72 ± 0.49
37 °C
  self-splicing fitness (ln): -0.0349 ± 0.47

## CUACAGCAAUAUUACGUACC
30 °C
  self-splicing fitness (ln): -3.08 ± 0.41
37 °C
  self-splicing fitness (ln): -1.72 ± 0.43
